The supplement of paper PMC10724198
± gives the standard deviation of the averaged measurements.

Test system: Saccharomyces cerevisiae
Assay: protein stability index of tFT-peptide fusion (C-terminal peptide) (PSI (0-1 scale)); higher = more stable (slower turnover)
Conditions: genetic background: wild type; temperature: 30 C
Experimental: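 Multiplexed protein stability (MPS) profiling in S. cerevisiae. Random 12-aa peptides (tFT-X12 library) are fused to the C-terminus of a sfGFP-mCherry tandem fluorescent timer, after mCherry and a GGGS linker. Cells are FACS-sorted into 8 mCherry/sfGFP bins and deep-sequenced. The protein stability index (PSI) is the read-weighted bin average, scaled from 0 (unstable) to 1 (stable). Only peptides with >10 reads are reported; cells were grown at 30 °C in SC-His with glucose.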
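Further: PSI is a weighted mean of sequencing reads over stability bins, variants kept only with over 10 reads, mCherry proximal and sfGFP distal, peptide attached via GGGS linker.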

Sequence	protein stability index
FWSCCCTLLFCV	0.5974 ± 0.002
FYLMSDTNLPAL	0.664 ± 0.021
FYSRSVTLEVLH	0.605 ± 0.023
FYWFPYYFSHLH	0.602 ± 0.048
GAAGGRGRGTAW	0.619 ± 0.15
GACSIVFYKVKR	0.653 ± 0.048
GAGGSAGARSAE	0.702 ± 0.03
GAGRGGGRGRRW	0.661 ± 0.031
GAGRVRAPGRWP	0.6965 ± 0.0035
GAGSGTRQPKPR	0.617 ± 0.0076
GAGSRRRNWGGW	0.711 ± 0.0081
GAILQVEAITHN	0.657 ± 0.068
GALVEGVFGHVR	0.658 ± 0.0066
GAPPPAFPISSP	0.648 ± 0.05
GAQVGVRFLFSI	0.55 ± 0.011
GARHTALCCPMG	0.623 ± 0.041
GARRGVSERSPA	0.647 ± 0.041
GASGGNRTGRRS	0.681 ± 0.022
GASGWGGGGRGR	0.767 ± 0.14
GATPRTAGRRPG	0.688 ± 0.038
GAVCRRVWVGSW	0.674 ± 0.0089
GAVRAVAGGGAR	0.711 ± 0.067
GAVVGGRCFCRR	0.715 ± 0.012
GCARLPALCCMF	0.694 ± 0.039
GCCCVMNQLRRR	0.777 ± 0.088
GCELVISCAHPV	0.695 ± 0.063

Sequence	protein stability index
GCFRGLYVVRGG	0.647 ± 0.039
GCFVGCDHWGVV	0.67 ± 0.028
GCGEGNVRPCEL	0.6347 ± 0.0011
GCGFRGVYSCWV	0.678 ± 0.078
GCGGGGGAWKGV	0.751 ± 0.056
GCGMCDPRCEHY	0.743 ± 0.083
GCGSWAWWCGRG	0.894 ± 0.08
GCGVGVGASVGR	0.636 ± 0.025
GCLHVVGGVCLG	0.69 ± 0.048
GCLPSGTPAWFG	0.751 ± 0.052
GCMRCTYKGKVK	0.713 ± 0.059
GCSVSRIRSAYV	0.672 ± 0.0089
GCVGGWLGEGIG	0.627 ± 0.035
GCVSAVSKCFFL	0.751 ± 0.1
GDARLAIWSLVT	0.512 ± 0.0098
GDIILSFFNFSK	0.666 ± 0.024
GDLVRNARSLII	0.72 ± 0.014
GDRYFGTPAPSH	0.757 ± 0.021
GDYETPSTRSPM	0.67 ± 0.023
GEAVGRWSECRS	0.664 ± 0.0091
GEDADLVPILLG	0.707 ± 0.044
GEFSINDGSGWT	0.7106 ± 0.0045
GEGAWNRKKPGD	0.632 ± 0.067
GEGRRQIKEEHV	0.6842 ± 0.0042
GEGRRWGSFWVG	0.6701 ± 0.0039
GEGVPVWNQCVE	0.658 ± 0.0091

Sequence	protein stability index
GEGVVRGDGVRG	0.656 ± 0.041
GEIMGEVARREK	0.66 ± 0.048
GELGIECREVVG	0.704 ± 0.087
GELVVRVGEWGC	0.7051 ± 0.0027
GEQAGLSLTAGP	0.678 ± 0.03
GERRREKRKNSG	0.726 ± 0.046
GESTNVYTTHWI	0.736 ± 0.011
GESWCGLVWPGG	0.675 ± 0.013
GEVILERKRRKI	0.629 ± 0.057
GEVKRSLGQVRG	0.695 ± 0.007
GEWRHVFSVTRC	0.7475 ± 0.0025
GEWVNLGFGFLF	0.781 ± 0.11
GEYYKRKMNGSK	0.718 ± 0.11
GFARICVLLPSS	0.727 ± 0.039
GFEIFYLVLGIP	0.52979 ± 0.00023
GFETGLGKGAGW	0.714 ± 0.019
GFGCVGSIFVIY	0.66 ± 0.018
GFGFMGLRFGVD	0.762 ± 0.13
GFGPPGPCSYVR	0.691 ± 0.042
GFGSGVVAGSSL	0.682 ± 0.044
GFISFASRISTS	0.722 ± 0.032
GFLEAIMRFCGL	0.719 ± 0.0081
GFLVNNCLGFLW	0.782 ± 0.051
GFLVPVALCPVV	0.557 ± 0.03
GFPGLFCGPVRF	0.742 ± 0.054
GFPGSYSKVLCL	0.6619 ± 0.0032

Sequence	protein stability index
GFRPVVAGIGHS	0.6632 ± 0.0061
GFSAGVSHSGAG	0.661 ± 0.017
GFSRELTLARLI	0.613 ± 0.017
GFTGGGRRWLGG	0.713 ± 0.056
GFTGWGRRWLGG	0.713 ± 0.059
GFVGVGEEEIFG	0.7217 ± 0.006
GFVRYPYFAFGR	0.687 ± 0.093
GGAGGNLAPGRG	0.638 ± 0.026
GGALTADTTIAP	0.662 ± 0.087
GGAMLMLAVEGV	0.609 ± 0.044
GGAWRGWCVGVR	0.644 ± 0.1
GGAYRCFSIQRS	0.687 ± 0.0078
GGCAGGGGVVVR	0.6851 ± 0.0046
GGCAGRGGVVVR	0.6904 ± 0.0029
GGCEWWSGGRGG	0.733 ± 0.026
GGCGGVCGACVV	0.695 ± 0.011
GGCGLGGVLEVG	0.676 ± 0.017
GGCGNVGVGVSV	0.694 ± 0.012
GGCGYGELWAWA	0.7908 ± 0.0038
GGCPPFGVSSVG	0.708 ± 0.013
GGCRGDGMMGVG	0.552 ± 0.072
GGCSCLGVGCLS	0.675 ± 0.045
GGCVWWSWGRGG	0.652 ± 0.016
GGDARGRGGMPD	0.712 ± 0.12
GGDIRGGVRHIG	0.725 ± 0.026
GGEGRGRVWEIS	0.686 ± 0.068

Sequence	protein stability index
GGELRPKGVRGV	0.656 ± 0.046
GGENGLGGLGVG	0.626 ± 0.14
GGFESRVVGGVG	0.526 ± 0.034
GGFRDIAYCLVP	0.613 ± 0.0072
GGGARWAGLGEG	0.687 ± 0.06
GGGCERGVGLLG	0.626 ± 0.066
GGGCGLFVFLSL	0.63 ± 0.058
GGGCQVSPPSLL	0.7076 ± 0.0024
GGGCVGGGSSCA	0.701 ± 0.12
GGGGGCGRAGGG	0.714 ± 0.053
GGGGGCLSGRLG	0.654 ± 0.028
GGGGGCVGRLWG	0.742 ± 0.026
GGGGGEWCLVRL	0.688 ± 0.027
GGGGGGGGYLGA	0.715 ± 0.027
GGGGGGGWGAVG	0.688 ± 0.0076
GGGGGGLLDVGV	0.685 ± 0.027
GGGGGLVVFGWK	0.687 ± 0.007
GGGGGVRLVVSR	0.668 ± 0.027
GGGGGVSGGGVF	0.672 ± 0.063
GGGGRGLLDVGV	0.689 ± 0.031
GGGGRGVGRGWG	0.675 ± 0.0046
GGGGSFLVGLGL	0.647 ± 0.056
GGGGSRWAGPRC	0.636 ± 0.031
GGGGVVRAWGLR	0.738 ± 0.043
GGGLAPADQVGV	0.729 ± 0.043
GGGLGAGWGVWG	0.68 ± 0.035

Sequence	protein stability index
GGGLGGGGFRGG	0.749 ± 0.033
GGGLGGLGCFMV	0.698 ± 0.036
GGGLSWARRSPS	0.683 ± 0.069
GGGLVLSGWCVW	0.751 ± 0.026
GGGREGEIGGGG	0.5705 ± 0.0013
GGGRGGFRVVVG	0.744 ± 0.042
GGGRGGSTPALG	0.667 ± 0.03
GGGRGWAGENTR	0.704 ± 0.028
GGGRPGLRALSY	0.747 ± 0.034
GGGSGGEAVRVW	0.645 ± 0.026
GGGSGGRRLVRF	0.726 ± 0.023
GGGSHASERAAR	0.723 ± 0.022
GGGSIAPRSVGT	0.7649 ± 0.0021
GGGSVGMWGWWV	0.625 ± 0.075
GGGTGALGTVRW	0.765 ± 0.055
GGGVGLRGGWDG	0.71 ± 0.044
GGGVRGGVLVLG	0.51 ± 0.03
GGGVSSEWSGCR	0.665 ± 0.0087
GGGVWGVGRGIL	0.6 ± 0.013
GGGWGGGGSSCA	0.659 ± 0.055
GGGWGSMDLRDR	0.712 ± 0.016
GGGWSRGGVGDR	0.672 ± 0.027
GGGWSRRGVGDR	0.673 ± 0.028
GGIRGEGEVGKR	0.69 ± 0.021
GGKLNRAGRATG	0.697 ± 0.088
